Results published in patent US20240123029A1.

Molecular target: Recombinant human mannose binding lectin (MBL) (human) (UniProt P11226)
Sequence (P11226 21-248 limits assumed): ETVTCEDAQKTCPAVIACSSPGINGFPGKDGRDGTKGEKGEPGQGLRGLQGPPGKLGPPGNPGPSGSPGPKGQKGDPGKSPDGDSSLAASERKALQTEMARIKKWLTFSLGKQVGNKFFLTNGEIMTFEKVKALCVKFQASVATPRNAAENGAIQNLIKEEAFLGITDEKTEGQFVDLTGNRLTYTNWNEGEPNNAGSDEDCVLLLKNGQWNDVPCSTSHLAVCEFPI

## Biotinylated SARS-CoV-2 S protein, His Tag, active trimer (from UniProt P0DTC2 16-1213) (other; other documents disagree on this pair)
  EC50 (read off the curve): 3 nM
